Where two headings read alike, the source gives them in different places.
Key:
[1] = target: T1, Chlorella sorokiniana chloroplastic NADP-specific glutamate dehydrogenase (NADP-GDH) β-homohexamer, native (mature β-subunit SEQ ID NO. 26) (Chlorella sorokiniana, UniProt P28998, E496R/E82D/G270P/L83V); conditions: β-homohexamer purified from Chlorella cells (catabolic form), non-allosteric; read-out: ammonium Km; cited from earlier work
T1 construct: endogenous in cells; host or cells: Chlorella sorokiniana (UTEX-1230; 3B2NA), cells cultured in 1 mM or 29 mM ammonium medium; enzyme purified from the cells
T1 sequence (P28998 49-523 E82D/L83V/G270P/E496R): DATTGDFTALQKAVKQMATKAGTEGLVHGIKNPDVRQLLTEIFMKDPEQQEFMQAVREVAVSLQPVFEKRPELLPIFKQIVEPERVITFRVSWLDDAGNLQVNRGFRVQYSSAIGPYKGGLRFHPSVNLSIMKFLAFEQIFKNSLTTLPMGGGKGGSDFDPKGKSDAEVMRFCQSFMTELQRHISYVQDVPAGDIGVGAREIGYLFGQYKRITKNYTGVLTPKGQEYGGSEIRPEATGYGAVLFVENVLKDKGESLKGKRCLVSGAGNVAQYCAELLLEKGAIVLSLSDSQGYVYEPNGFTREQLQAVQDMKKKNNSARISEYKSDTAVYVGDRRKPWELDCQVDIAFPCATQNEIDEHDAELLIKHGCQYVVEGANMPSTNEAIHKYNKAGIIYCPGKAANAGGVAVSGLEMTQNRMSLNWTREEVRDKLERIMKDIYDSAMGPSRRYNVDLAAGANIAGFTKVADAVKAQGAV

[2] = target: T2, Chlorella sorokiniana chloroplastic NADP-specific glutamate dehydrogenase (NADP-GDH) α-homohexamer, native (mature α-subunit SEQ ID NO. 24) (Chlorella sorokiniana, UniProt P28998, E496R/E82D/G270P/L83V); assay: Km values, aminating reaction, α-homohexameric isoenzyme; type: biochemical; conditions: NH4^+ range, depending on the NADPH concentration (b9)
T2 construct: endogenous in cells; host or cells: Chlorella sorokiniana (UTEX-1230; 3B2NA), cultured in 29 mM ammonium medium; enzyme purified from the cells
T2 sequence (P28998 with tags, fused parts or gaps E82D/L83V/G270P/E496R): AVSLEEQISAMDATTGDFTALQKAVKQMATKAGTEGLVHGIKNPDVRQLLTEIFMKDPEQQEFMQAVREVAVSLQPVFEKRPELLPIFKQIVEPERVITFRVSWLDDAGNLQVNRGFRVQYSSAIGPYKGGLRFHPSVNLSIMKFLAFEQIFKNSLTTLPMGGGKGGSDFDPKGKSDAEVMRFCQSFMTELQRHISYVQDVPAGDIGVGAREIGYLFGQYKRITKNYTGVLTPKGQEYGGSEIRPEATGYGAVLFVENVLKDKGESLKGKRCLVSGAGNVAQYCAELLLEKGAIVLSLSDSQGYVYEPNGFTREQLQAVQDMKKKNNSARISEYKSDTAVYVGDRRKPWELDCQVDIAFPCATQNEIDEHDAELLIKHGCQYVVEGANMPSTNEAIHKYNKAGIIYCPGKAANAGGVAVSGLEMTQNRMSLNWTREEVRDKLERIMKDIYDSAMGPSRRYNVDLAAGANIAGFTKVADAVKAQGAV
Description: (§1) The chloroplastic glutamate dehydrogenase α- and β-isoenzymes used in the following experiments are naturally produced by an organism characterized as Chlorella sorokiniana.
(§2) C. sorokiniana culture conditions. For kinetic characterization in both the aminating and deaminating directions, the α- and β-holoenzymes were purified from cells that were accumulating only one form of homohexameric GDH isoenzyme.
(§3) The C. sorokiniana cells (UTEX-1230, University of Texas algal culture collection; 3B2NA, Robert R. Schmidt, University of Florida, Microbiology Cell Science Department) were cultured autotrophically as previously described by Prunkard et al., supra in a modified basal salts medium. […]
(§4) For preparative nondenaturing PAGE, a 3 cm tall 7% acrylamide (w/v, 28 acrylamide: 0.735 bis-acrylamide, pH 8.8) resolving gel, and a 2 cm tall 2% acrylamide (w/v, 1.6 acrylamide: 0.4 bis-acrylamide, pH 6.6) stacking gel were cast in the 28 mm ID gel tube of the Model 491 Prep Cell. […] The enzyme in the pooled fractions in 10 mM KPO4 (pH 6.2), 0.1 mM NADP^+ was concentrated by Diaflow ultrafiltration to 1 mg/mL as determined by the method of Bradford, using BSA as a standard. […] The purity of the preparation was determined by silver-staining to visualize proteins resolved by 10% (w/v) Tris-Tricine SDS-PAGE (Schagger, H., G. von Jagow [1987] Anal. Biochem. 166:368-379). […]

[3] = target: T1, Chlorella sorokiniana chloroplastic NADP-specific glutamate dehydrogenase (NADP-GDH) β-homohexamer, native (mature β-subunit SEQ ID NO. 26); assay: Km values, aminating reaction, β-homohexameric isoenzyme; type: biochemical
Description: as §1, §2, §3
(§5) The NADP-GDH β-isoenzyme was purified from a mixture of cells cultured for 240 minutes in 1 mM ammonium medium (14 g), 90 minutes in 1 mM ammonium medium (6 g), and for 20, 40, 60, and 80 minutes in 29 mM ammonium medium (1 g/time point) according to Bascomb and Schmidt, supra. […] The NADP-GDH in the pooled fractions was concentrated via Diaflow ultrafiltration to 2 mg/ml protein, as determined by the method of Bradford (Bradford, M. M. [1976] Anal. Biochem. 72:248-254), and stored at 4° C. until further use. After resolution of the proteins by 8% (w/v) Tris-Tricine SDS-PAGE, the purity of the preparation was determined by silver staining. […]

[4] = substrate: O=C(O)CCC(=O)C(=O)O; assay: purified protein, by the assay type; conditions: other: β-homohexamer, aminating reaction; 38.5 °C
[5] = substrate: NC(=O)c1ccc[n+]([C@@H]2O[C@H](COP(=O)([O-])OP(=O)(O)OC[C@H]3O[C@@H](n4cnc5c(N)ncnc54)[C@H](OP(=O)(O)O)[C@@H]3O)[C@@H](O)[C@H]2O)c1; assay: Km values, deaminating reaction, β-homohexameric isoenzyme; type: biochemical, Chlorella sorokiniana; conditions: other: β-homohexamer, 38.5 °C
Description: as §1, §2, §3, §5

[6] = substrate: N[C@@H](CCC(=O)O)C(=O)O; assay: as above; type: biochemical, Chlorella sorokiniana; conditions: other: β-homohexamer, 38.5 °C
Description: as §1, §2, §3, §5

[7] = substrate: NC(=O)C1=CN([C@@H]2O[C@H](COP(=O)(O)OP(=O)(O)OC[C@H]3O[C@@H](n4cnc5c(N)ncnc54)[C@H](OP(=O)(O)O)[C@@H]3O)[C@@H](O)[C@H]2O)C=CC1; assay: Km values, aminating reaction, β-homohexameric isoenzyme; type: biochemical, Chlorella sorokiniana; conditions: other: β-homohexamer, 38.5 °C
Description: as §1, §2, §3, §5

[8] = substrate: NC(=O)c1ccc[n+]([C@@H]2O[C@H](COP(=O)([O-])OP(=O)(O)OC[C@H]3O[C@@H](n4cnc5c(N)ncnc54)[C@H](OP(=O)(O)O)[C@@H]3O)[C@@H](O)[C@H]2O)c1; assay: Km values, deaminating reaction, α-homohexameric isoenzyme; type: biochemical, Chlorella sorokiniana; conditions: other: α-homohexamer, 38.5 °C
Description: as §1, §2, §3, §4

[9] = substrate: N[C@@H](CCC(=O)O)C(=O)O; assay: as above; type: biochemical, Chlorella sorokiniana; conditions: other: α-homohexamer, 38.5 °C
Description: as §1, §2, §3, §4

[10] = substrate: NC(=O)C1=CN([C@@H]2O[C@H](COP(=O)(O)OP(=O)(O)OC[C@H]3O[C@@H](n4cnc5c(N)ncnc54)[C@H](OP(=O)(O)O)[C@@H]3O)[C@@H](O)[C@H]2O)C=CC1; assay: Km values, aminating reaction, α-homohexameric isoenzyme; type: biochemical, Chlorella sorokiniana; conditions: other: α-homohexamer, 38.5 °C
Description: as §1, §2, §3, §4

Molecule: N [NH4^+, ammonium]
- Km [1]: ~75 mM
- Km [2]: 0.02 to 3.5 mM
- Km [3]: 77 mM

B1: Chlorella sorokiniana chloroplastic NADP-specific glutamate dehydrogenase (NADP-GDH) β-homohexamer, native (mature β-subunit SEQ ID NO. 26) (Chlorella … (protein)
chain: DATTGDFTALQKAVKQMATKAGTEGLVHGIKNPDVRQLLTEIFMKDPEQQEFMQAVREVAVSLQPVFEKRPELLPIFKQIVEPERVITFRVSWLDDAGNLQVNRGFRVQYSSAIGPYKGGLRFHPSVNLSIMKFLAFEQIFKNSLTTLPMGGGKGGSDFDPKGKSDAEVMRFCQSFMTELQRHISYVQDVPAGDIGVGAREIGYLFGQYKRITKNYTGVLTPKGQEYGGSEIRPEATGYGAVLFVENVLKDKGESLKGKRCLVSGAGNVAQYCAELLLEKGAIVLSLSDSQGYVYEPNGFTREQLQAVQDMKKKNNSARISEYKSDTAVYVGDRRKPWELDCQVDIAFPCATQNEIDEHDAELLIKHGCQYVVEGANMPSTNEAIHKYNKAGIIYCPGKAANAGGVAVSGLEMTQNRMSLNWTREEVRDKLERIMKDIYDSAMGPSRRYNVDLAAGANIAGFTKVADAVKAQGAV
notes: endogenous in cells; host or cells: Chlorella sorokiniana (UTEX-1230; 3B2NA), cells cultured in 1 mM or 29 mM ammonium medium; enzyme purified from the cells
- Km [4]: 12 mM
- Km [5]: 0.04 mM
- Km [6]: 32.3 mM
- Km [7]: 0.14 mM

B2: Chlorella sorokiniana chloroplastic NADP-specific glutamate dehydrogenase (NADP-GDH) α-homohexamer, native (mature α-subunit SEQ ID NO. 24) (Chlorella … (protein)
chain: AVSLEEQISAMDATTGDFTALQKAVKQMATKAGTEGLVHGIKNPDVRQLLTEIFMKDPEQQEFMQAVREVAVSLQPVFEKRPELLPIFKQIVEPERVITFRVSWLDDAGNLQVNRGFRVQYSSAIGPYKGGLRFHPSVNLSIMKFLAFEQIFKNSLTTLPMGGGKGGSDFDPKGKSDAEVMRFCQSFMTELQRHISYVQDVPAGDIGVGAREIGYLFGQYKRITKNYTGVLTPKGQEYGGSEIRPEATGYGAVLFVENVLKDKGESLKGKRCLVSGAGNVAQYCAELLLEKGAIVLSLSDSQGYVYEPNGFTREQLQAVQDMKKKNNSARISEYKSDTAVYVGDRRKPWELDCQVDIAFPCATQNEIDEHDAELLIKHGCQYVVEGANMPSTNEAIHKYNKAGIIYCPGKAANAGGVAVSGLEMTQNRMSLNWTREEVRDKLERIMKDIYDSAMGPSRRYNVDLAAGANIAGFTKVADAVKAQGAV
notes: endogenous in cells; host or cells: Chlorella sorokiniana (UTEX-1230; 3B2NA), cultured in 29 mM ammonium medium; enzyme purified from the cells
- Km [8]: 0.04 mM
- Km [9]: 38.2 mM
- Km [10]: 0.14 mM

Reference: US7485771B2, “Polypeptides and polynucleotides relating to the α- and β-subunits of glutamate dehydrogenases and methods of use” (University of Florida Research Foundation, Inc., priority 1995, dated 2009)
